Reference: publication PMC7926950, “Constructing an Efficient Bacillus subtilis Spore Display by Using Cohesin−Dockerin Interactions” (Molecules, 2021)

Substrate: O=[N+]([O-])c1ccccc1O[C@@H]1O[C@H](CO)[C@H](O)[C@H](O)[C@H]1O
Assay: purified protein
Format: biochemical, Geobacillus kaustophilus
Conditions: free enzyme, not displayed on spores, ONPG 0.83-20 mM, general assay printed as 20 mM potassium phosphate pH 6.0, 75 °C (spore assay)

B1: Bsβ–Gal (Geobacillus kaustophilus) (protein)
chain: MNVLSSICYGGDYNPEQWPEEIWYEDAKLMQKAGVNLVSLGIFSWSKIEPSDGVFDFEWLDKVIDILYDHGVYINLGTATATTPAWFVKKYPDSLPIDESGVILSFGSRQHYCPNHPQLITHIKRLVRAIAERYKNHPALKMWHVNNEYACHVSKCFCENCAVAFRKWLKERYKTIDELNERWGTNFWGQRYNHWDEINPPRKAPTFINPSQELDYYRFMNDSILKLFLTEKEILREVTPDIPVSTNFMGSFKPLNYFQWAQHVDIVTWDSYPDPREGLPIQHAMMNDLMRSLRKGQPFILMEQVTSHVNWRDINVPKPPGVMRLWSYATIARGADGIMFFQWRQSRAGAEKFHGAMVPHFLNENNRIYREVTQLGQELKKLDCLVGSRIKAEVAIIFDWENWWAVELSSKPHNKLRYIPIVEAYYRELYKRNIAVDFVRPSDDLTKYKVVIAPMLYMVKEGEDENLRQFVANGGTLIVSFFSGIVDENDRVHLGGYPGPLRDILGIFVEEFVPYPETKVNKIYSNDGEYDCTTWADIIRLEGAEPLATFKGDWYAGLPAVTRNCYGKGEGIYVGTYPDSNYLGRLLEQVFAKHHINPILEVAENVEVQQRETDEWKYLIIINHNDYEVTLSLPEDKIYQNMIDGKCFRGGELRIQGVDVAVLREHDEAGKV
notes: full-length bgaB in pET-28a (PCR from pJS-cotY-bgaB), expressed in E. coli BL21(DE3), heat treatment and Ni-NTA, free enzyme; printed as tetrameric
In the case of B1, the Km is reported as 2970 ± 50 µM.
